These results are taken from publication PMC2964404.

The target of the experiment is Staphylococcus aureus enterotoxin C3, wild type (Staphylococcus aureus) (UniProt P0A0L5). Nature of the experiment: ITC.

In turn, “variable domain of the murine T cell receptor (TCR) β chain 8.2 (domain or fragment)” had a dH of -4.88 kcal/mol.
